Data on one substance can be found in patent US20160340412A1.

The target in this experiment is C3. Put plainly: analytical ultracentrifugation; self-association (dimer).

As to C3, the Kd was found to be 188 µM.
